Residue numbers refer to the chain shown, from its start.
T1: soluble CD22-Fc (R&D Systems) (UniProt P20273 20-687)
T1 construct: Bought reagent used to stain CD22 CARs; not shown: Fc part; detected with anti-human IgG Fc-gamma secondary
T1 sequence (looked up): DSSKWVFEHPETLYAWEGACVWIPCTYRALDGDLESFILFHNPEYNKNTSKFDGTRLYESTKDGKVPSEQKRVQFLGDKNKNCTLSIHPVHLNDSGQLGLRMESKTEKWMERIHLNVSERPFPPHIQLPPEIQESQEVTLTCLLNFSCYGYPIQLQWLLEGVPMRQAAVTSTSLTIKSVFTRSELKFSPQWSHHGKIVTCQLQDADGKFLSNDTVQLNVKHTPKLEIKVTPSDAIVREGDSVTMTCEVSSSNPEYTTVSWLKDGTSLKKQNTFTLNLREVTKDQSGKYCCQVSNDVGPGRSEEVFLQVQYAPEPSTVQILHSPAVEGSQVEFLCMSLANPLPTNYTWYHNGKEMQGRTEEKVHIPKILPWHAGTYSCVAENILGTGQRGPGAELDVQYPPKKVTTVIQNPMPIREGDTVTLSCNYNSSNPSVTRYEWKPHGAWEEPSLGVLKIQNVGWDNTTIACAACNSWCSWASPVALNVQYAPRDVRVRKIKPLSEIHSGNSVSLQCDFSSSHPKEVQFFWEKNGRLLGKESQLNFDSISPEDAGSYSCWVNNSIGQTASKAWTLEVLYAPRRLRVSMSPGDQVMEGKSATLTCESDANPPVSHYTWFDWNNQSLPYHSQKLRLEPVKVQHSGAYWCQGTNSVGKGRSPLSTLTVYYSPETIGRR

B1: CD22-65 CAR (other)
chain: EVQLQQSGPGLVKPSQTLSLTCAISGDSMLSNSDTWNWIRQSPSRGLEWLGRTYHRSTWYDDYASSVRGRVSINVDTSKNQYSLQLNAVTPEDTGVYYCARVRLQDGNSWSDAFDVWGQGTMVTVSSGGGGSGGGGSGGGGSQSALTQPASASGSPGQSVTISCTGTSSDVGGYNYVSWYQQHPGKAPKLMIYDVSNRPSGVSNRFSGSKSGNTASLTISGLQAEDEADYYCSSYTSSSTLYVFGTGTQLTVLTTTPAPRPPTPAPTIASQPLSLRPEACRPAAGGAVHTRGLDFACDIYIWAPLAGTCGVLLLSLVITLYCKRGRKKLLYIFKQPFMRPVQTTQEEDGCSCRFPEEEEGGCELRVKFSRSADAPAYKQGQNQLYNELNLGRREEYDVLDKRRGRDPEMGGKPRRKNPQEGLYNELQKDKMAEAYSEIGMKGERRRGKGHDGLYQGLSTATKDTYDALHMQALPPR
notes: also called CD22-65_Zmut
B2: CD22-58 CAR (other)
chain: EVQLQQSGPGLVNPSQTLSITCAISGDSVSSNSAAWNWIRQSPSRGLEWLGRTFYRSKWYNDYAVSVKGRITISPDTSKNQFSLQLNSVTPEDTAVYYCAGGDYYYGLDVWGQGTTVTVSSGGGGSGGGGSGGGGSQSALTQPASVSGSPGQSITISCTGSSSDVGGYNSVSWYQQHPGKAPKLMIYEVINRPSGVSHRFSGSKSGNTASLTISGLQAEDEADYYCSSYTSSSTYVFGTGTKVTVL
notes: CAR on primary human T cells; not shown: hinge, transmembrane, 4-1BB and CD3zeta parts of the CAR
B3: CD22-53 CAR (other)
chain: EVQLQQSGPGLVKPSQTLSLTCAISGDSVSSNSAAWNWIRQSPSRGLEWLGRTYYRSKWYSDYAVSVKSRITINPDTSKNQFSLQLNSVTPEDTAVYYCARDPYDFWSGYPDAFDIWGQGTMVTVSSGGGGSGGGGSGGGGSQSALTQPASVSGSPGQSITISCTGTSSDVGGYNYVSWYQQHPGKAPKVIISEVNNRPSGVSHRFSGSKSGNTASLTISGLQAEDEADYFCSSYTSGRTLYVFGTGSKVTVLG
notes: Control CD22 CAR; not shown: hinge, transmembrane, 4-1BB and CD3zeta parts of the CAR
B4: CD22-57 CAR (other)
chain: EVQLQQSGPGLVKPSQTLSLTCAISGDSVSNNNAAWNWIRQSPSRGLEWLGRTYHRSTWYNDYVGSVKSRITINPDTSKNQFSLQLNSVTPEDTAVYYCARETDYGDYGAFDIWGQGTTVTVSSGGGGSGGGGSGGGGSQSALTQPASVSGSPGQSITISCTGSRNDIGAYESVSWYQQHPGNAPKLIIHGVNNRPSGVFDRFSVSQSGNTASLTISGLQAEDEADYYCSSHTTTSTLYVFGTGTKVTVL
notes: as for B2
B5: CD22-61 CAR (other)
chain: QVQLQESGPGLVKPSQTLSLTCAISGDSVLSNSDTWNWIRQSPSRGLEWLGRTYHRSTWYDDYASSVRGRVSINVDTSKNQYSLQLNAVTPEDTGVYYCARDRLQDGNSWSDAFDVWGQGTMVTVSSGGGGSGGGGSGSGGSQSALTQPASVSGSPGQSITISCTGTSSDVGGYNYVSWYQQHPGKAPKLMIYEVSNRPSGVSNRFSGSKSGNTASLTISGLQAEDEADYYCSSYTSSSTLYVFGTGTKVTVL
notes: as for B2
B6: CD22-63 CAR (other)
chain: B5 chain with Q1E, E6Q, S139G, V243I
notes: as for B2
B7: CD22-64 CAR (other)
chain: EVQLQQSGPGLVKPSQTLPLTCAISGDSVLSNSDTWNWIRQSPSRGLEWLGRTYHRSTWYDDYASSVRGRVSINVDTSKNQYSLQLNAVTPEDTGVYYCARVRLQDGNSWSDAFDVWGQGTMVTVSSGGGGSGGGGSGGGGPQSALTQPASASGSPGQSVTISCTGTSSDVGGYNYVSWYQQHPGKAPKLMIYDVSNRPSGVSNRFSGSKSGNTASLTISGLQAEDEADYYCSSYTSSSTLYVFGTGTQLTVL
notes: as for B2

Biological target: T1, soluble CD22-Fc (R&D Systems)
Assay: flow cytometry, soluble CD22-Fc plus anti-human Fc-PE on CAR-transduced primary T cells (FIG. 4)

| MFI | Binder |
| --- | --- |
| > 20000 | B1 |
| 5700 | B2 |
| > 20000 | B3 |
| > 20000 | B4 |
| > 20000 | B5 |
| > 20000 | B6 |
| > 20000 | B7 |

From patent USRE49847 (dated 2024)
